# Where two headings read alike, the source gives them in different places.
# T1: Endogenous human IL-33 (human, UniProt O95760 1-270, limits assumed)
# T1 sequence (looked up): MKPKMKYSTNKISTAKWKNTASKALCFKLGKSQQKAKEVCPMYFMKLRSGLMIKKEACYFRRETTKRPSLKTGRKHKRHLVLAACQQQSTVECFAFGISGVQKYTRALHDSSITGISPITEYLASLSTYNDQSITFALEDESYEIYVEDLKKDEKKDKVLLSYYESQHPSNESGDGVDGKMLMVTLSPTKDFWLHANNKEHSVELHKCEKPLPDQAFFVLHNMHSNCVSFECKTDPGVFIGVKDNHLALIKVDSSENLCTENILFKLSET
# T2: His10/Avi Human IL33-01 (human)
# T2 chain: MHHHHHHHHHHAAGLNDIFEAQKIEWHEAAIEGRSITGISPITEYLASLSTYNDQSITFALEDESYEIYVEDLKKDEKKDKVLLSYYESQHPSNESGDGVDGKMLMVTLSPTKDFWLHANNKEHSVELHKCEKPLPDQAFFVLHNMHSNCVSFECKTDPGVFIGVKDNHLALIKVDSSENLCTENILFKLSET
# T3: Recombinant human IL-33 (construct not named in the example) (human, UniProt O95760 112-270, limits assumed)
# T3 construct: also called Recombinant, enzymatically biotinylated human IL-33 (produced in-house); IL-33 (200 nM)
# T3 sequence (looked up): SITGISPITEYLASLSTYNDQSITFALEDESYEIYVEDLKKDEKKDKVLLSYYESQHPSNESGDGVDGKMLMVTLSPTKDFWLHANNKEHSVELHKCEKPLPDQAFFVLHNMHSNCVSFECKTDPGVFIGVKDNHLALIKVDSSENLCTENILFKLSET
# B1: 33_640087-7B IgG1 (antibody, V domains shown)
# VH: EVQLLESGGGLVQPGGSLRLSCAASGFTFSSYAMSWVRQAPGKGLEWVSGISAIDQSTYYADSVKGRFTISRDNSKNTLYLQMNSLRAEDTAVYYCARQKFMQLWGGGLRYPFGYWGQGTMVTVSS
# VL: SYVLTQPPSVSVSPGQTASITCSGEGMGDKYAAWYQQKPGQSPVLVIYRDTKRPSGIPERFSGSNSGNTATLTISGTQAMDEADYYCGVIQDNTGVFGGGTKLTVL
# notes: IgG1
# Key:
# Endogenous human IL-33 = biological target: T1, Endogenous human IL-33; test: cell-based or functional assay
# His10/Avi Human IL33-01 [1] = biological target: T2, His10/Avi Human IL33-01; test: cell-based or functional assay
# His10/Avi Human IL33-01 [2] = biological target: T2, His10/Avi Human IL33-01; test: HTRF competition: purified IgG against FLAG-His human ST2 for biotinylated IL33-01, overnight incubation
# [3] = biological target: T3, Recombinant human IL-33 (construct not …); test: KinExA 3200, IgG at 5 pM and 500 fM equilibrated with IL-33, 25 C
# Method: The affinity of the antibody 33_640087-7B was measured by kinetic exclusion assays performed on the KinExA 3200. The sampling beads were prepared by mixing 200 mg of dry UltraLink Biosupport Azlactone beads with 110 μg of IL-33 (as mentioned previously) in 2.5 ml of 50 mM sodium hydrogen bicarbonate pH 8.4 at room temperature for 2 hours with constant agitation. The beads were rinsed and blocked with 10 mg/ml BSA in 1M Tris pH 8.7. Prior to use, the beads were resuspended into D-PBS, 0.02% sodium azide. 33_640087-7B/IL-33 equilibrium mixtures were prepared in sample buffer composed of 1 mg/ml BSA, 0.02% sodium azide in DPBS (Dulbecco's PBS). […] The fluorescent secondary detection reagent was Alexa Fluor 647 goat anti-human-Fc diluted in 1 mg/ml BSA, 0.02% sodium azide, 0.1% Tween 20 in DPBS. The samples were run on the KinExA whilst housed in a temperature controlled cabinet set at 25° C. The data was analysed using the KinExA Pro software version 4.1.11.
# 33v20064 IgG1 [4] = biological target: T4, 33v20064 IgG1; test: HTRF: unlabelled test protein competes with biotinylated human IL33-01 for DyLight labelled 33v20064 IgG
# T4 construct: IgG1; also called ZZ1EBX-E05
# Method: (§1) Human, cyno and mouse IL-33 FLAG® His (described in Example 1) were tested for inhibition of human IL-33 binding to DyLight labelled 33v20064 by adding 5 microlitres of each dilution of IL-33 sample to a 384 well low volume assay plate (Costar, 3673). […] This was followed by the addition of 2.5 microlitres of a solution containing 1.2 nM biotinylated human IL-33-01 combined with 1.5 nM streptavidin cryptate detection (Cisbio International, 610SAKLB). All dilutions were performed in assay buffer containing 0.8 M potassium fluoride (VWR, 26820.236) and 0.1% bovine serum albumin (BSA, PAA, K05-013) in Dulbeccos PBS (Invitrogen, 14190185). Assay plates were incubated for 1 hour at room temperature and time resolved fluorescence was read at 620 nm and 665 nm emission wavelengths using an EnVision plate reader (Perkin Elmer). Data were analysed by calculating the 665/620 nm ratio followed by the % Delta F values for each sample. The 665/620 nm ratio was used to correct for sample interference using Equation 1. The % Delta F for each sample was then calculated using Equation 2. The negative control (non-specific binding) was defined by replacing biotinylated human IL-33 combined with streptavidin cryptate detection with streptavidin cryptate detection only. […] IC₅₀ values were determined using GraphPad Prism software by curve fitting using a four-parameter logistic equation (Equation 4).
# 33_640087-7B IgG1 = biological target: B1; test: HTRF: unlabelled test protein competes with biotinylated human IL33-01 for DyLight650 labelled 33_640087-7B IgG
# Method: Human, cyno and mouse IL-33 FLAG® His (described in Example 1 and Table 21), Human IL-1 alpha and IL-1 beta (R&D Systems) (Table 21) or rat IL-33 (GenScript) were tested for inhibition of human IL-33 binding to DyLight650 labelled 33_640087-7B or DyLight650 labelled 33_640237-2B by adding 5 microlitres of each dilution of sample to a 384 well low volume assay plate (Costar, 3673). […] This was followed by the addition of 2.5 microlitres of a solution containing 0.12 nM biotinylated human IL-33-01 combined with 0.75 nM streptavidin cryptate detection (Cisbio International, 610SAKLB). All dilutions were performed in assay buffer containing 0.8 M potassium fluoride (VWR, 26820.236) and 0.1% bovine serum albumin (BSA, PAA, K05-013) in Dulbeccos PBS (Invitrogen, 14190185). Assay plates were incubated for 4 hours at room temperature followed by 18 hours at 4 degrees Celsius and time resolved fluorescence was read at 620 nm and 665 nm emission wavelengths using an EnVision plate reader (Perkin Elmer). Data were analysed by calculating the 665/620 nm ratio followed by the % Delta F values for each sample. The 665/620 nm ratio was used to correct for sample interference using Equation 1. The % Delta F for each sample was then calculated using Equation 2. […] IC₅₀ values were determined using GraphPad Prism software by curve fitting using a four-parameter logistic equation (Equation 4).
# 33_640237-2B IgG1 = biological target: T5, 33_640237-2B IgG1; test: HTRF: unlabelled test protein competes with biotinylated human IL33-01 for DyLight650 labelled 33_640237-2B IgG
# T5 construct: IgG1
# Method: Human, cyno and mouse IL-33 FLAG® His (described in Example 1 and Table 21), Human IL-1 alpha and IL-1 beta (R&D Systems) (Table 21) or rat IL-33 (GenScript) were tested for inhibition of human IL-33 binding to DyLight650 labelled 33_640087-7B or DyLight650 labelled 33_640237-2B by adding 5 microlitres of each dilution of sample to a 384 well low volume assay plate (Costar, 3673). […] This was followed by the addition of 2.5 microlitres of a solution containing 0.12 nM biotinylated human IL-33-01 combined with 0.75 nM streptavidin cryptate detection (Cisbio International, 610SAKLB). All dilutions were performed in assay buffer containing 0.8 M potassium fluoride (VWR, 26820.236) and 0.1% bovine serum albumin (BSA, PAA, K05-013) in Dulbeccos PBS (Invitrogen, 14190185). Assay plates were incubated for 4 hours at room temperature followed by 18 hours at 4 degrees Celsius and time resolved fluorescence was read at 620 nm and 665 nm emission wavelengths using an EnVision plate reader (Perkin Elmer). Data were analysed by calculating the 665/620 nm ratio followed by the % Delta F values for each sample. The 665/620 nm ratio was used to correct for sample interference using Equation 1. The % Delta F for each sample was then calculated using Equation 2. The negative control (non-specific binding) was defined by replacing biotinylated human IL-33 combined with streptavidin cryptate detection with streptavidin cryptate detection only. The % Delta F values were subsequently used to calculate % specific binding as described in Equation 3. IC₅₀ values were determined using GraphPad Prism software by curve fitting using a four-parameter logistic equation (Equation 4).
# 33v20064 IgG1 [5] = biological target: T4, 33v20064 IgG1; test: HTRF: unlabelled test protein competes with biotinylated human IL33-01 for DyLight labelled 33v20064 IgG; remark: listed apart in the source
# Method: as §1
# T4 sequence (VL, as listed by the source): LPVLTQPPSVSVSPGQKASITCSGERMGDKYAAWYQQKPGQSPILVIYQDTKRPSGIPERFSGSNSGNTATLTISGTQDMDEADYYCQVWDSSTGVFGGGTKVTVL
"IC50, Huvec IL-8 release stimulated by human lung lysate (Endogenous human IL-33)","IC50 (nM) vs. His Avi IL-33, Huvec IL-8 assay (His10/Avi Human IL33-01 [1])",IC50 (read off the curve) (His10/Avi Human IL33-01 [2]),Kd [3],IC50 (read off the curve) (33v20064 IgG1 [4]),IC50 (read off the curve) (33_640087-7B IgG1),IC50 (read off the curve) (33_640237-2B IgG1),IC50 (read off the curve) (33v20064 IgG1 [5]),Binder
13 pM,0.046 nM,~400 pM,0.03 pM,,,,,B1
,,,,~100000 pM,~700 pM,~1000 pM,~200000 pM,"Human IL-33 Flag®His (ligand, Mature IL-33 with C-terminal FLAG 10xHis tag, from E. coli; biotinylated via free cysteines where used biotinylated; also called Mature Human IL-33_FH; human IL-33 FH) SITGISPITEYLASLSTYNDQSITFALEDESYEIYVEDLKKDEKKDKVLLSYYESQHPSNESGDGVDGKMLMVTLSPTKDFWLHANNKEHSVELHKCEKPLPDQAFFVLHNMHSNCVSFECKTDPGVFIGVKDNHLALIKVDSSENLCTENILFKLSETNPAFLYKVVGAADYKDDDDKAAHHHHHHHHHH"
